Assay results taken from publication doi:10.1101/2022.11.10.515920.

What was measured:
[1] = target: adalimumab produced in BY-2 lysate; experiment: SPR
[2] = target: commercial adalimumab reference product from CHO cells (Humira); experiment: SPR

human FcR I (CD64), sequence (P12314 16-292): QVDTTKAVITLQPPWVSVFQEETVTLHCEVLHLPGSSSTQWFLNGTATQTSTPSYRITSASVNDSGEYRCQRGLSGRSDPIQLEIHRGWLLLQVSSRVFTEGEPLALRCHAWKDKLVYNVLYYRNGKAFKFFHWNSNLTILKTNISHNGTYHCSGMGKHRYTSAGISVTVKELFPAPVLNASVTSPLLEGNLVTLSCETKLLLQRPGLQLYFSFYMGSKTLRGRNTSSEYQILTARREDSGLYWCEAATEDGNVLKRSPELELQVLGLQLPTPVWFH

- Kd [1]: 0.353 nM
- Kd [2]: 0.158 nM
Substance: human FcR I (CD64) (from UniProt P12314) (receptor)
